Source: publication PMC10830565 (2024)

What was measured:
GST-BCL7B-CFP = biological target: T1, GST-BCL7B-CFP (Arabidopsis thaliana, UniProt Q9FLP2); assay: GST pull-down
T1 chain: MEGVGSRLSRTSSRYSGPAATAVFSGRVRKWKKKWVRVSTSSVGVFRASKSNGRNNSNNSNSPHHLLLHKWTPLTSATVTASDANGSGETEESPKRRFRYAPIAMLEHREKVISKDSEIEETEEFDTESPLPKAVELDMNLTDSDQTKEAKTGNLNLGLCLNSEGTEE

GST-BCL7A-YFP = biological target: T2, GST-BCL7A-YFP (Arabidopsis thaliana, UniProt F4JL58); assay: GST pull-down
T2 chain: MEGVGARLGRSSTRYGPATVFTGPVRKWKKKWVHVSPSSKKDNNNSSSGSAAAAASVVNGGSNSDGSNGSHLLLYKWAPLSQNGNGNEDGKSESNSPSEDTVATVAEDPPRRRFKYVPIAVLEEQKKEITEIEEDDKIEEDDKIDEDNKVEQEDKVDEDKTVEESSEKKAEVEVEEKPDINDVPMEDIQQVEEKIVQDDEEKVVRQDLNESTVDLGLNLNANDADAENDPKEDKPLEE

B1: MBP-BRM (422-952)-HIS (protein)
chain: MQQPRQLNTPTPNLVAPSDTGPLSNSSLQSGQGTQQAQQRSGFTKQQLHVLKAQILAFRRLKKGEGSLPPELLQAISPPPLELQTQRQISPAIGKVQDRSSDKTGEDQARSLECGKESQAAASSNGPIFSKEEDNVGDTEVALTTGHSQLFQNLGKEATSTDVATKEEQQTDVFPVKSDQGADSSTQKNPRSDSTADKGKAVASDGSQSKVPPQANSPQPPKDTASARKYYGPLFDFPFFTRKLDSYGSATANANNNLTLAYDIKDLICEEGAEFLSKKRTDSLKKINGLLAKNLERKRIRPDLVLRLQIEEKKLRLSDLQSRVREEVDRQQQEIMSMPDRPYRKFVRLCERQRLEMNRQVLANQKAVREKQLKTIFQWRKKLLEAHWAIRDARTARNRGVAKYHEKMLREFSKRKDDGRNKRMEALKNNDVERYREMLLEQQTNMPGDAAERYAVLSSFLTQTEDYLHKLGGKITATKNQQEVEEAANAAAVAARLQGLSEEEVRAAATCAREEVVIRNRFTEMNAPKEN
**Q.** Does B1 bind (GST-BCL7B-CFP)?
**A.** Result: binds

**Q.** Does B1 bind (GST-BCL7A-YFP)?
**A.** Result: binds
